From patent publication US20120308570A1, “METHODS FOR TREATING DISEASES” (priority 2009, published 2012) come the findings set out here.

Test [1] has as its system iNOS degradation in Ssb-1T/+ and Ssb-2T/+ BMDM. The experiment in a line: iNOS degradation post-wash in SSB transgenic BMDM (Western blot). The test is classed as cell-based, mouse. As to conditions: MG-132 10 μM post-wash. As to the method: FIG. 11. SSB-1 and SSB-2 regulation of iNOS expression is dependent on the proteasome. BMDM from (A) littermate controls (Ssb-1^+/+) and SSB-1-transgenic mice (Ssb-1^T/+) or (B) Ssb-1^+/+ and SSB-2-transgenic mice (Ssb-2^T/+) were incubated with IFNγ and LPS (20 ng/ml) for 16 h, washed, replenished with fresh medium with (+) or without (−) the proteasomal inhibitor MG-132 (10 μM) and lysed at the indicated times post-wash. Proteins were separated by SDS-PAGE and analysed by Western blot using anti-iNOS antibodies. Equivalent protein loading was confirmed by stripping and reprobing the membrane with anti-tubulin antibodies.
Bone marrow-derived macrophages were generated as described and re-plated at 1.0×10^6 cells/well on 6-well plates (Costar) in DME containing 10% FCS and 20% L-cell conditioned media. Cells were incubated with IFNγ and LPS as described, and lysed in KALB lysis buffer (Nicholson et al., 1995) containing protease inhibitors (Complete Cocktail tablets, Roche), 1 mM phenylmethylsulphonyl fluoride, 1 mM Na3VO4 and 1 mM NaF. Proteins were immunoprecipitated using anti-Flag antibody conjugated to Sepharose (M2; EASTMAN KODAK). Proteins were separated by sodium dodecyl sulphatepolyacrylamide gel electrophoresis (SDS-PAGE) under reducing conditions and electrophoretically transferred to Biotrace PVDF membranes (Pall Corp. Ann Arbor, Mich.). […]

Test [2] has as its target T1, full-length iNOS protein (endogenous, from LPS/IFNγ-treated mouse bone marrow-derived macrophages) (mouse, UniProt P29477 1-1144).
T1 construct: Not purified: present in macrophage lysates; Detected by Western blot with anti-iNOS antibody; also called NOS2; inducible nitric oxide synthase
T1 sequence: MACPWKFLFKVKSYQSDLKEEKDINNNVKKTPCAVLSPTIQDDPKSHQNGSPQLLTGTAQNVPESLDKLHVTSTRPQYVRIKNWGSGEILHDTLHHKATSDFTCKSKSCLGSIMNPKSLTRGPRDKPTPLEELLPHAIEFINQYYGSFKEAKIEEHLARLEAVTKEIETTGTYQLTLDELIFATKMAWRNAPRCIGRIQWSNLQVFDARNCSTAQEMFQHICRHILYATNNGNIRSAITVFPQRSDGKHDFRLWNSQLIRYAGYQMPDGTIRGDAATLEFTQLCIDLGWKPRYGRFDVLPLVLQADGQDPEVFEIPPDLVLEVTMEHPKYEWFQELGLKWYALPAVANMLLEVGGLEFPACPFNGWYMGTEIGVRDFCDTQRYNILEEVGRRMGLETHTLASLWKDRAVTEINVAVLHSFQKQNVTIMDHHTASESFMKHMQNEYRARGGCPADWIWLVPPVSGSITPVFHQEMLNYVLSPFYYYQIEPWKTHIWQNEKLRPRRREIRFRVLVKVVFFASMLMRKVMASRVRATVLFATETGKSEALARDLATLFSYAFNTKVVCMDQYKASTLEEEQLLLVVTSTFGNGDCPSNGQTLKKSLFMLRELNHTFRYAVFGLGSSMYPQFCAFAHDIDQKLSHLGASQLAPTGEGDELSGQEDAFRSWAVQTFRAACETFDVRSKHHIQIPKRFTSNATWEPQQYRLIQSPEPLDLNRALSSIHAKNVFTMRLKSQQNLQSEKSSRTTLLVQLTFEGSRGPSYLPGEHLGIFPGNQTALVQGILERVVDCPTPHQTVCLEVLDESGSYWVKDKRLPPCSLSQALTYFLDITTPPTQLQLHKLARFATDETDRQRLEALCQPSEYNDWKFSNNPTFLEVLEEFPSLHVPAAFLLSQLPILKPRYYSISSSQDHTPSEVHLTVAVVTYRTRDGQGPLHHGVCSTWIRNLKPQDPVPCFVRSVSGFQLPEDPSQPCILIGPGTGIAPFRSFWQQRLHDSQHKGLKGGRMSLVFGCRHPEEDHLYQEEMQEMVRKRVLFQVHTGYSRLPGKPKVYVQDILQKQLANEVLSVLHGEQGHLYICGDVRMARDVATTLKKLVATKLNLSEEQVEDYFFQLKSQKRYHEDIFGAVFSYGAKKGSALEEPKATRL
Description: anti-Flag co-immunoprecipitation from mixed 293T and BMDM lysates, anti-iNOS Western blot. The text has this: FIG. 6. Interaction between iNOS and SSB-1, -2, and -4 and SSB-2 residues affecting 10 iNOS binding. (A) iNOS interacts preferentially with SSB-2 and SSB-4. 293T cells were transiently transfected with vector alone or cDNA encoding either Flag-tagged SSB-1, SSB-2, SSB-3 or SSB-4. Cells were lysed, and mixed with BMDM lysates from cells induced to express iNOS. Flag-tagged proteins were immunoprecipitated using anti-Flag antibodies (M2-beads) and separated by SDSPAGE. Co-immunoprecipitation of iNOS was detected by Western blot with anti-iNOS antibodies (upper panel). Membranes were stripped and reprobed with rat anti-Flag antibodies (middle panel). Comparative expression of Flag-tagged proteins in 293T lysates is shown by Western blot (lower panel). (B) SSB-2 residues affecting iNOS binding. Residues in the SSB-2 SPRY domain were mutated to Ala or Phe (for Y120) based on SSB-2 structure and sequence conservation. […] Coimmunoprecipitation of iNOS was detected by Western blot with anti-iNOS antibodies.
To investigate whether other SSB family members were able to interact with iNOS, 293T cells were transiently transfected with cDNA expressing SSB-1, SSB-2, SSB-3 or SSB-4 with an N-terminal Flag-epitopetag. […] SSB proteins were immunoprecipitated using anti-Flag antibodies coupled to Sepharose and association of iNOS analysed by Western blot. […]
For orientation: A western blot detects proteins with antibodies after separation by electrophoresis.

The target in test [3] is T2, Y120A-SSB-2ΔSB (murine SSB-2 residues 12-224 with tyrosine 120 mutated to alanine) (mouse, UniProt O88838 12-224).
T2 construct: also called SSB-2-Y120A
T2 chain: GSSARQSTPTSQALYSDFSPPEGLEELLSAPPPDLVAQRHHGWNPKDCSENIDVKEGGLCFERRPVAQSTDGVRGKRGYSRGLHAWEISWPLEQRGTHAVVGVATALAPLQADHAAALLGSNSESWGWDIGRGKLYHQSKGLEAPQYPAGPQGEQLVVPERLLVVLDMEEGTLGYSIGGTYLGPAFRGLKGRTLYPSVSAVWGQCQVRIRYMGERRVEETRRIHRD
Description: ITC, 25 C, wild-type peptide with Y120A-SSB-2ΔSB. As to the method: (§1) FIG. 3. Typical ITC raw data and titration curves for SSB-2 and iNOS peptide interactions. Titration curves were fitted using the “One Set of Sites” model in MicroCal Origin.
(§2) Wild-type and mutant iNOS peptides (Table 2), corresponding to Lys19-Thr31 of mouse iNOS, were synthesized by GL Biochem (Shanghai) Ltd. These peptides were N-terminal acetylated and C-terminal amidated. All ITC measurements were carried out at 25° C. using a Microcal omega VP-ITC (Microcal Inc., Northampton, Mass.). SSB-2ΔSB was dialysed against buffer (100 mM TrisHCl, 150 mM NaCl, pH 8.0), and wild-type and mutant iNOS N-terminal peptides were prepared in the same buffer from 5 mM stocks. Solutions of 5 to 10 μM SSB-2ΔSB in the cell were titrated by injection of a total of 290 μL of 50-200 μM of iNOS peptides. Data analysis was performed using the evaluation software, MicroCal Origin version 5.0. All curves were fitted using the nonlinear least-squares fitter and the “One Set of Sites” model.

Test [4] addresses T2, Y120A-SSB-2ΔSB (murine SSB-2 residues …). The experiment in a line: ITC. As for the experimental part:
as §2
(§3) Mutation of Glu21 had no effect on SSB-2:iNOS peptide binding. […] Binding of an SSB-2-SPRY domain in which tyrosine 120 had. been mutated to alanine (Y120A-SSB-2ΔSB) was assessed by ITC.
A general note: ITC needs no label: the signal is the heat of the interaction.

The target of test [5] is T3, SSB-2ΔSB (recombinant murine SSB-2 SPRY domain, residues 12-224) (mouse, UniProt O88838 12-224).
T3 construct: 226 residues in total; expressed as GST fusion in E. coli, GST cleaved off with thrombin; 15N-labelled for NMR; coupled to NHS-Sepharose for pull-downs; also called SPSB2
T3 sequence: T2 chain with A115Y
The experiment in a line: ITC, 25 C, peptide injected into SSB-2ΔSB. As to the method:
as §1, §2

The target in test [6] is T3, SSB-2ΔSB (recombinant murine SSB-2 SPRY …). The experiment in a line: ITC. As for the experimental part:
as §2, §3

Test [7] deals with T1, full-length iNOS protein (endogenous, …). The experiment in a line: anti-SSB-2 immunoprecipitation from BMDM, anti-iNOS Western blot (FIG. 5B). As for the experimental part:
FIG. 5. SSB-2 interacts with endogenous full-length iNOS protein. (A) SSB-2 interacts with full-length iNOS and this requires tyrosine 120 in the SPRY domain peptide-binding surface. Bone marrow-derived macrophages (BMDM) from C57BL/6 mice were incubated with 20 ng/ml IFNγ and 1 μg/ml LPS for 16 h, lysed and incubated with NHS-sepharose beads coupled with recombinant SSB-2 or SSB-2-Y120A proteins, or with uncoupled NHS-sepharose beads (CON), for 3 h at 4° C. Associated proteins were then separated by SDS-PAGE and transferred to PVDF membrane. iNOS was detected by Western blot with specific anti-iNOS antibodies (upper panel). Equivalent amounts of SSB-2 and SSB-2-Y120A were confirmed by reprobe with anti-SSB-2 antibodies (lower panel). (B) Interaction between endogenous iNOS and SSB-2 proteins. Bone marrow-derived macrophages from SSB-2-deficient mice (Ssb-2^{-/-}) or wild-type littermate controls (Ssb-2^{+/+}) were incubated with (+) or without (−) 20 ng/ml IFNγ and 20 ng/ml LPS for 16 h, lysed and endogenous SSB-2 proteins immunoprecipitated using rabbit anti-SSB-2 antibody coupled to NHS-Sepharose. Immunoprecipitates were separated by SDS-PAGE and associated iNOS protein detected by Western blot with specific antibodies (upper panel). […]

Changes are numbered by the printed parent chain. Peptide text beside a SMILES is read from it. * marks the point of attachment. Cbz = O=C(OCc1ccccc1)*

For `CC(C)C[C@@H](C=O)NC(=O)[C@H](CC(C)C)NC(=O)[C@H](CC(C)C)NC(=O)OCc1ccccc1` [MG-132] (Cbz-Leu-Leu-Leu-aldehyde), the “effect on enhanced iNOS degradation” value in test [1] is “abrogated”.

B1: Flag-tagged SSB-3 (murine, expressed in 293T cells) (other, mouse)
chain: DYKDDDDKMARRTRSSRAWHFVLSAARRDTDARAVALAGSSNWGYDSDGQHSDSDSDPEYSSLPPSIPSAVPVTGESFCDCEGQNEATFCNSLHTAHRGKDCRCGEEDEDFDWVWDDLNKSSATLLSCDNRKVSFHMEYSCGTAAIRGTKELGDGQHFWEIKMTSPVYGTDMMVGIGTSDVDLDKYHHTFCSLLGRDEDSWGLSYTGLLHHKGDKTSFSSRFGQGSIIGVHLDTWHGTLTFFKNRKCIGVAATRLQNRRFYPMVCSTAAKSSMKVIRSCASSTSLQYLCCYRLRQLRPNSGDTLEGLPLPPGLKQVLHNKLGWVLSMNCNHWKSPVPPPGTATPGAESLETRPCQRKRCRRS
notes: also called SPSB3
As for B1, the binding result in test [2] is recorded as “no binding”.

B2: iNOS N-terminal peptide I, wild-type, Ac-KEEKDINNNVKKT-NH2 (peptide)
peptide: Ac-KEEKDINNNVKKT-NH2
notes: Synthetic peptide (GL Biochem); also called wild-type iNOS peptide; iNOS peptide
B2: the results for the Kd in test [3] and in test [5] were 76300 nM and 13.3 nM, respectively. For the same molecule, the “fold reduced affinity against SSB-2ΔSB” value in test [4] was roughly 5000 fold.

B3: iNOS N-terminal peptide XV, Ac-KEEADINNNAKAT-NH2 (peptide)
peptide: Ac-KEEADINNNAKAT-NH2
B3: in test [6], the “fold decrease of binding affinity against the wild-type peptide” value is roughly 24 fold. Further, the Kd in test [5] is 311 nM.

B4: endogenous SSB-2 protein (mouse bone marrow-derived macrophages) (other)
chain: MGQTALARGSSSTPTSQALYSDFSPPEGLEELLSAPPPDLVAQRHHGWNPKDCSENIDVKEGGLCFERRPVAQSTDGVRGKRGYSRGLHAWEISWPLEQRGTHAVVGVATALAPLQADHYAALLGSNSESWGWDIGRGKLYHQSKGLEAPQYPAGPQGEQLVVPERLLVVLDMEEGTLGYSIGGTYLGPAFRGLKGRTLYPSVSAVWGQCQVRIRYMGERRVEEPQSLLHLSRLCVRHALGDTRLGQISTLPLPPAMKRYLLYK
notes: Immunoprecipitated with rabbit anti-SSB-2 antibody coupled to NHS-Sepharose; also called SPSB2
On to B4, for which the binding result in test [7] is listed as “binds”.

For orientation: Kd means the equilibrium constant for the complex coming apart.
